Source: PMC11742427, “Structural basis for metal ion transport by the human SLC11 proteins DMT1 and NRAMP1” (Nature Communications, 2025)
Each block holds one binder with its values, some of them ahead of it.

Key:
human DMT1 (SLC11A2) [1] = target: T1, human DMT1 (SLC11A2) (human, UniProt P49281-3 2-590, chemically biotinylated (EZ-Link NHS-PEG4-Biotinylation kit) for the SPR experiments); test: SPR; chemically biotinylated DMT1 or NRAMP1 immobilised on a SAD200M chip (about 900 RU); sybodies injected at 7.8-500 nM, 10 °C, 30 µl/min; 10 mM HEPES pH 7.4, 150 mM NaCl, 0.04% DDM, 0.004% CHS, 0.1% BSA; fit to a 1:1 binding model; details: both partners purified
T1 construct: human DMT1 (SLC11A2), UniProt P49281-3; Tags follow an HRV-3C site and were removed with HRV 3C protease; The same construct was used without biotin for the SEC of the complexes; source: HEK293S GnTI- cells, transient transfection, purified in DDM/CHS (StrepTactin, SEC); not shown: Myc, C-terminal, cleaved
T1 sequence: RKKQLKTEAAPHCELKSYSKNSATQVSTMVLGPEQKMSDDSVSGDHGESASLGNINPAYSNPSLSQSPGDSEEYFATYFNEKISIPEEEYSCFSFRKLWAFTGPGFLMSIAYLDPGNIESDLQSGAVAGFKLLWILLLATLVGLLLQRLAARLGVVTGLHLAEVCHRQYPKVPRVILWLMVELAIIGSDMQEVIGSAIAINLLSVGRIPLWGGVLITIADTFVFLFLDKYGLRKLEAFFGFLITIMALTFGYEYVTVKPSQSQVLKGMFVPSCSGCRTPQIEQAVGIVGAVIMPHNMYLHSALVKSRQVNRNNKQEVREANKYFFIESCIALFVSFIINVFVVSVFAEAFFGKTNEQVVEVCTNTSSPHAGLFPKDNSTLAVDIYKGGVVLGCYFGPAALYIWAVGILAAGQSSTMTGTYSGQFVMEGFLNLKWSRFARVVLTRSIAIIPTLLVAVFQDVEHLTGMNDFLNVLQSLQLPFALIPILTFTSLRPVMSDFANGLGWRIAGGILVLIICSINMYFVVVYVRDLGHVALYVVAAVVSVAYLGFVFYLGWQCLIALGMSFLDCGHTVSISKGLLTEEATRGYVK

human DMT1 (SLC11A2) [2] = target: T2, human DMT1 (SLC11A2) (Homo sapiens, DMT1 isoform 3 (P49281-3), UniProt P49281-3, chemically biotinylated (EZ-Link NHS-PEG4-Biotinylation kit) for the SPR assay; not for cryo-EM); test: SPR; chemically biotinylated DMT1 or NRAMP1 immobilised on a SAD200M chip (~900 RU); sybodies injected at 7.8-500 nM, 10 °C, 30 µl/min; 10 mM HEPES pH 7.4, 150 mM NaCl, 0.04% DDM, 0.004% CHS, 0.1% BSA; single-site binding model; details: both partners purified
T2 construct: human DMT1 (SLC11A2), UniProt identifier P49281-3, codon-optimised synthetic gene in pcDXC3MS; The C-terminal HRV-3C site was cut, so residues of the cleavage site are left on the C-terminus; One construct was used for SPR (biotinylated, immobilised) and cryo-EM; source: HEK293S GnTI- cells, transient transfection, purified in DDM/CHS (StrepTactin, HRV 3C cleavage, SEC); not shown: Myc, …

Kd (human DMT1 (SLC11A2) [1]): 55 nM
B1: sybody Sb1^DMT1 (VHH)
VHH: QVQLVESGGGLVQAGGSLRLSCAASGFPVSRSEMYWYRQAPGKEREWVAAIHSIGWNTRYADSVKGRFTISRDNAKNTVYLQMNSLKPEDTAVYYCNVKDAGWFWTNYDYWGQGTQVTVSA
notes: synthetic nanobody (sybody) selected against DMT1; the tags are surmised from the vector

Kd (human DMT1 (SLC11A2) [2]): ~50 nM
B2: Sb1^DMT1 (sybody, synthetic nanobody selected against DMT1) (VHH)
VHH: B1 VHH
notes: Selected from synthetic nanobody (sybody) libraries; The sybody model PDB 7P5V was only the starting model for building Sb1, not Sb1 itself

Kd (human DMT1 (SLC11A2) [1]): 48 nM
B3: sybody Sb2^DMT1 (VHH)
VHH: QVQLVESGGGLVQAGGSLRLSCAASGFPVNAAWMHWYRQAPGKEREWVAAIRSAGHLTEYADSVKGRFTISRDNAKNTVYLQMNNLKPEDTAVYYCWVYVGESYHGQGTQVTVSA
notes: synthetic nanobody (sybody) selected against DMT1; the tags are surmised from the vector; Not resolved in the maps of PDB 9F6N and 9F6O
